Entries after “also recorded” stand apart in the source; their conditions may differ.
T1: Mer (rhMer-Fc chimera) (Homo sapiens, UniProt Q12866)
T1 construct: Soluble recombinant antigens corresponding to the extracellular domains of members of the human TAM receptor family; Fc; purchased R&D Systems 891-MR
T1 sequence (Q12866 21-505 limits assumed): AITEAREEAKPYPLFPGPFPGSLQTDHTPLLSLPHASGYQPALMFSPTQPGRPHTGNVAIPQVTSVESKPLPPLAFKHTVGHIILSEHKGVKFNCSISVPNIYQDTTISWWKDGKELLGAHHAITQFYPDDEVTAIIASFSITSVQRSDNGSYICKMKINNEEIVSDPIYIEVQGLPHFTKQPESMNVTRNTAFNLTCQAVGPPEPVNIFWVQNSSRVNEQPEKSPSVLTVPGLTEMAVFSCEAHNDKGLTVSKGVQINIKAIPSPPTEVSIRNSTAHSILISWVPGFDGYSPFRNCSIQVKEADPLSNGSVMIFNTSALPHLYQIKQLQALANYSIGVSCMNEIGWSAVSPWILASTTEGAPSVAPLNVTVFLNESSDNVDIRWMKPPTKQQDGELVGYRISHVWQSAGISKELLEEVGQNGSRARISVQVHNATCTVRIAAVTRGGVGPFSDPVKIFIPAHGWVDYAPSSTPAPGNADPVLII

B1: murine 10G5: mouse monoclonal anti-human Axl antibody from hybridoma WR-10G5-E5; VH SEQ ID NO: 28, VL SEQ ID NO: 29 (antibody, listed as Mus musculus, V domains shown)
VH: QVQLQQSGAELVRPGASVKLSCKASGYSFTDFYINWVRQRPGQGLEWIARIFPGGDNTYYNEKFKGKATLTAEESSSTAYIQLSSLTSEDSAVYFCARRGLYYAMDYWGQGISVTVSS
VL: DVLMTQTPLSLPVSLGDQASISCRSSQSLVHSNGIPYLHWYLQKPGQSPKLLIYRVSNRFSGVPDRFSGSGSGTDFTLKISRVEAEDLGVYFCSQGTHVPPTFGGGTKLEIK
modifications: (1)..(118) Mus musculus 10G5 VH domain; (1)..(112) Mus musculus 10G5 VL domain
B2: c10G5: chimeric (mouse variable/human constant) IgG1 antibody with the 10G5 VH and VL (antibody, V domains shown)
VH: B1 VH
VL: B1 VL

Assays:
Mer (rhMer-Fc chimera) = molecular target: T1, Mer (rhMer-Fc chimera); test: Biacore binding analysis on immobilised human Mer; settings: 10 μg/mL in HBS-EP, 25° C.
Description: All binding experiments were performed using Biacore 3000 instrument (GE Healthcare) at 25° C. Soluble recombinant antigens corresponding to the extracellular domains of members of the human TAM receptor family, Axl (rhAxl-Fc chimera; R&D Systems, Cat. no. 154-AL), Mer (rhMer-Fc chimera; R&D Systems, Cat. no. 891-MR) and Tyro3 (rhTyro3/Dtk-Fc chimera; R&D Systems, Cat. no. 859-DK) were immobilized on the surface of CM5 sensor chip using amine coupling at the surface density of 393.0, 303.6 and 364.0 resonance units (RU), respectively. The Biacore run was performed in an automatic mode using Binding analysis wizard. Samples containing MAb 10G5 at concentration 10 μg/mL in HBS-EP buffer (GE Healthcare) were injected over the surfaces with immobilized antigens at flow rate of 30 μL/min for 3 min (association) followed by 5 min dissociation.

cyno-Axl (cyno-Axl-Fc) = test: Biacore binding analysis on immobilised cynomolgus Axl; parameters: species or system cynomolgus monkey (Macaca fascicularis); settings: 10 μg/mL in HBS-EP, 25° C.
Description: The sequence of Axl receptor from cynomolgus monkey (Macaca fascicularis; SEQ ID NO: 27) was retrieved from WO2009062690A1. Based on the sequence, recombinant extracellular domain of cyno-Axl was generated by transient expression in CHO cells as a fusion protein with human Fc. The recombinant cyno-Axl-Fc was purified to homogeneity using Protein A-Sepharose (GE Healthcare). The binding experiments were performed using Biacore 3000 instrument (GE Healthcare) at 25° C. The soluble recombinant antigens corresponding to human Axl (rhAxl-Fc chimera; R&D Systems, Cat. no. 154-AL) and cyno-Axl were immobilized on the surface of CM5 sensor chip using amine coupling at the surface density of 775 and 880 RU, respectively. The Biacore runs were performed in an automatic mode using Binding analysis wizard.
The sample containing MAb 10G5 or human Axl-specific MAb 5F11 (control) at concentration 10 μg/mL in HBS-EP buffer (GE Healthcare) was injected over the surfaces with immobilized antigens at flow rate of 30 μL/min for 3 min (association) followed by 5 min dissociation.

[1] = molecular target: T2, rhAxl-Fc (binding of Gas6 / MAB154) (Homo sapiens, UniProt P30530); test: Biacore competitive binding study, MAb 10G5 as first sample (Example 6); settings: rhAxl-Fc saturated with 10G5 (160 nM), second sample 25 μg/mL
T2 construct: Fc
Description: A competitive binding study was performed using Biacore 3000 instrument (GE Healthcare) and Binding Analysis wizard with several cycles of two samples injection. As a first sample, a saturating concentration of MAb 10G5 (160 nM or 24 μg/mL) was injected over the surface of a CM5 sensor chip coated with rhAxl-Fc (using amine coupling) for 3 min at flow rate of 30 μL/min followed by 2.5 min stabilization (HBS-EP buffer alone) before the injection of the second sample. The following second samples were used: recombinant human (rh) Gas6 (R&D Systems, Cat. no. 885-GS), recombinant mouse (rm) Gas6 (R&D Systems, Cat. no. 986-GS/CF) and a panel of anti-Axl antibodies, such as MAB154 (R&D Systems, Cat. no. MAB154), and 10G5; all at concentration 25 μg/mL. The second sample was injected for 3 min, followed by 2.5 min stabilization (buffer alone) and regeneration of the surface by 30 sec injection of a regeneration solution (10 mM HCl, 1 M NaCl) at flow rate 50 μL/min.

[2] = molecular target: T3, Hs-Axl-Fc (immobilized Axl-Fc) (Homo sapiens, UniProt P30530); test: Biacore binding competition assays, two injections (Example 22)
T3 construct: Fc
From the text: Sensor chip with immobilised Axl: Hs-Axl-Fc (638.2 RU), Mm-Axl-Fc (334.5 RU), Rhe-Axl-Fc (350.2 RU)
In this experiment, a first antibody was allowed to bind to saturation. A second antibody was then applied and its ability to bind was monitored.
If the second antibody recognizes the same (or overlapping) epitope as the first antibody then binding will be blocked. If the second antibody recognizes a different epitope then binding will be detected at the same level as if no first antibody was present.
The ability of Gas6 to block antibody binding was also tested, using Gas6 at 10 μg/mL in HBS-EP.
All tests were performed in parallel on Hs-Axl-Fc, Mm-Axl-Fc and Rhe-Axl-Fc surfaces.
See FIG. 1 for a list of the pairs that were tested (in this list Contr-1 is incorrectly labeled YW367 instead of YW327.6S2var). All antibodies were at 25 μg/mL in HBS-EP.
• 2. Perform Biacore experiments at 25° C. • 3. In the instrument control software choose Direct Binding, and select settings for two injections as shown below. • 4. […] Store the template & the result file, start the analysis.

Mv4-11 tumours = test: Mv4-11 human AML xenograft in nude mice; type: in vivo, mouse; settings: 30 mg/kg i.p. twice weekly, after three weeks of treatment, versus vehicle
Description: To evaluate the anti-tumour activity of anti-Axl chimeric antibodies in a model of haematological cancer, we used a mouse xenograft model of human acute myeloid leukaemia (AML). The human AML Mv4-11 cells (ATCC #CRL-9591) cells were propagated in suspension in IMDM medium supplemented with 10% FBS, 2 mM L-Glutamine, 100 U/ml penicillin and 100 μg/ml streptomycin. Nude mice were implanted s.c. into the flank with 5×10^6 Mv4-11 cells resuspended in the mixture of serum-free IMDM medium and Matrigel (1:1). When the tumour size reached 200 mm^3 (Day 0 in FIG. 15), the animals were randomized and treated with either vehicle (sterile PBS) or anti-Axl chimeric antibody 10G5 at 30 mg/kg, by i.p. injections twice weekly for 4 weeks.

Sequence of cyno-Axl (cyno-Axl-Fc) (as listed by the source): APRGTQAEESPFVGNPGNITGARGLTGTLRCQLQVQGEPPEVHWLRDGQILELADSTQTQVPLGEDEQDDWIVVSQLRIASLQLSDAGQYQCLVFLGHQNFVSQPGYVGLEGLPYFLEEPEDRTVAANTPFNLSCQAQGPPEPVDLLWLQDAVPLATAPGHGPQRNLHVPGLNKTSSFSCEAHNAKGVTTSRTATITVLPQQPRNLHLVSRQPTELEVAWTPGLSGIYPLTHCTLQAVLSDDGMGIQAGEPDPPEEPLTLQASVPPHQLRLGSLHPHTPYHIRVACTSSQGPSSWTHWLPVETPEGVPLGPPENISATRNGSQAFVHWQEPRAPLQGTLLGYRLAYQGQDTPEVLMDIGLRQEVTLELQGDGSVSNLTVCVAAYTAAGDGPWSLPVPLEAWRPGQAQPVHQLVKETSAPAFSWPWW

| Molecule | Binding to recombinant human Mer (Mer (rhMer-Fc chimera)) | Binding to Axl from cynomolgus monkey (cyno-Axl (cyno-Axl-Fc)) | Competition with MAB154 for Axl binding [1] | Inhibition of Gas6 (human and murine) binding to rhAxl [1] | Competition with 1H12 for binding to Axl [2] | Inhibition of Mv4-11 tumour growth (Mv4-11 tumours) |
| --- | --- | --- | --- | --- | --- | --- |
| B1 | no significant binding | bind strongly; also recorded: strong and specific interaction | did no inhibit; also recorded: did not compete | cannot be bound; also recorded: inhibited | No competition | – |
| B2 | – | – | – | – | – | around 75% |

From patent US11732048B2, “Anti-axl antagonistic antibodies” (BERGEN TEKNOLOGIOVERFØRING AS, priority 2016, dated 2023)
